± gives the standard deviation of the averaged measurements.
Assay: total protein half-life in vivo (active degradation + dilution); higher = more stable protein
[1] = E. coli NCM3722 delta-clpP delta-lon delta-hslV, growth: N-lim chemostat, doubling time 6 h
[2] = E. coli NCM3722 delta-hslV, growth: N-lim chemostat, doubling time 6 h
[3] = E. coli NCM3722 delta-lon, growth: N-lim chemostat, doubling time 6 h
[4] = E. coli NCM3722 delta-smpB, growth: N-lim chemostat, doubling time 6 h
[5] = wild type E. coli NCM3722, growth: C-lim chemostat, doubling time 3 h
[6] = wild type E. coli NCM3722, growth: C-lim chemostat, doubling time 6 h
[7] = wild type E. coli NCM3722, growth: C-lim chemostat, doubling time 12 h
[8] = wild type E. coli NCM3722, growth: N-lim chemostat, doubling time 12 h
[9] = wild type E. coli NCM3722, growth: P-lim chemostat, doubling time 6 h
[10] = wild type E. coli NCM3722, growth: P-lim chemostat, doubling time 12 h
[11] = E. coli NCM3722 delta-clpP, growth: N-lim chemostat, doubling time 6 h
[12] = wild type E. coli NCM3722, growth: N-lim chemostat, doubling time 6 h

Sequence: MVSALYAVLSALLLMKFSFDVVRLRMQYRVAYGDGGFSELQSAIRIHGNAVEYIPIAIVLMLFMEMNGAETWMVHICGIVLLAGRLMHYYGFHHRLFRWRRSGMSATWCALLLMVLANLWYMPWELVFSLR
- total protein half-life in vivo [1]: > 8 h
- total protein half-life in vivo [2]: > 8 h
- total protein half-life in vivo [3]: 6.32 h
- total protein half-life in vivo [4]: 7.19 ± 0.64 h
- total protein half-life in vivo [5]: 3.51 ± 0.12 h
- total protein half-life in vivo [6]: 7.27 h
- total protein half-life in vivo [7]: 13.7 h
- total protein half-life in vivo [8]: > 16 h
- total protein half-life in vivo [9]: 6.53 ± 0.12 h
- total protein half-life in vivo [10]: 13.1 ± 1.1 h

Sequence: MFDSTLNPLWQRYILAVQEEVKPALGCTEPISLALAAAVAAAELEGPVERVEAWVSPNLMKNGLGVTVPGTGMVGLPIAAALGALGGNANAGLEVLKDATAQAIADAKALLAAGKVSVKIQEPCDEILFSRAKVWNGEKWACVTIVGGHTNIVHIETHDGVVFTQQACVAEGEQESPLTVLSRTTLAEILKFVNEVPFAAIRFILDSAKLNCALSQEGLSGKWGLHIGATLEKQCERGLLAKDLSSSIVIRTSAASDARMGGATLPAMSNSGSGNQGITATMPVVVVAEHFGADDERLARALMLSHLSAIYIHNQLPRLSALCAATTAAMGAAAGMAWLVDGRYETISMAISSMIGDVSGMICDGASNSCAMKVSTSASAAWKAVLMALDDTAVTGNEGIVAHDVEQSIANLCALASHSMQQTDRQIIEIMASKAR
- total protein half-life in vivo [1]: 4.74 ± 0.075 h

Sequence: MNAIWIAVAAVSLLGLAFGAILGYASRRFAVEDDPVVEKIDEILPQSQCGQCGYPGCRPYAEAISCNGEKINRCAPGGEAVMLKIAELLNVEPQPLDGEAQEITPARMVAVIDENNCIGCTKCIQACPVDAIVGATRAMHTVMSDLCTGCNLCVDPCPTHCISLQPVAETPDSWKWDLNTIPVRIIPVEHHA
- total protein half-life in vivo [1]: 2.26 ± 0.093 h
- total protein half-life in vivo [11]: 1.52 h
- total protein half-life in vivo [4]: 0.89 h
- total protein half-life in vivo [6]: 0.945 h
- total protein half-life in vivo [10]: 1.92 ± 0.49 h

Sequence: MMNNKVSFTNSNNPTISLSAVIYFPPKFDETRQYQAIVLSHPGGGVKEQTAGTYAKKLAEKGFVTIAYDASYQGESGGEPRQLENPYIRTEDISAVIDYLTTLSYVDNTRIGAMGICAGAGYTANAAIQDRRIKAIGTVSAVNIGSIFRNGWENNVKSIDALPYVEAGSNARTSDISSGEYAIMPLAPMKESDAPNEELRQAWEYYHTPRAQYPTAPGYATLRSLNQIITYDAYHMAEVYLTQPTQIVAGSQAGSKWMSDDLYDRASSQDKRYHIVEGANHMDLYDGKAYVAEAISVLAPFFEETL
- total protein half-life in vivo [1]: 6.23 ± 1.9 h
- total protein half-life in vivo [11]: 4.63 ± 0.35 h
- total protein half-life in vivo [2]: 4.23 ± 0.18 h
- total protein half-life in vivo [4]: 4.02 ± 0.44 h
- total protein half-life in vivo [6]: 6.58 ± 0.55 h
- total protein half-life in vivo [7]: 11.2 ± 1.6 h
- total protein half-life in vivo [12]: 4.088 ± 0.028 h
- total protein half-life in vivo [8]: 6.51 ± 0.44 h
- total protein half-life in vivo [9]: 6.21 ± 0.18 h
- total protein half-life in vivo [10]: 13.7 ± 2.8 h

Sequence: MDLLYRVKTLWAALRGNHYTWPAIDITLPGNRHFHLIGSIHMGSHDMAPLPTRLLKKLKNADALIVEADVSTSDTPFANLPACEALEERISEEQLQNLQHISQEMGISPSLFSTQPLWQIAMVLQATQAQKLGLRAEYGIDYQLLQAAKQQHKPVIELEGAENQIAMLLQLPDKGLALLDDTLTHWHTNARLLQQMMSWWLNAPPQNNDITLPNTFSQSLYDVLMHQRNLAWRDKLRAMPPGRYVVAVGALHLYGEGNLPQMLR
- total protein half-life in vivo [1]: 5.23 h
- total protein half-life in vivo [11]: 5.02 h
- total protein half-life in vivo [2]: 5.67 h
- total protein half-life in vivo [3]: 5.61 h
- total protein half-life in vivo [4]: 5.46 ± 0.086 h
- total protein half-life in vivo [5]: 2.97 ± 0.043 h
- total protein half-life in vivo [7]: 11.5 h
- total protein half-life in vivo [12]: 5.74 ± 0.45 h
- total protein half-life in vivo [8]: 12.5 h
- total protein half-life in vivo [9]: 5.75 ± 0.62 h
- total protein half-life in vivo [10]: 10.6 ± 0.083 h

Sequence: MNIELRHLRYFVAVAEELHFGRAAARLNISQPPLSQQIQALEQQIGARLLARTNRSVLLTAAGKQFLADSRQILSMVDDAAARAERLHQGEAGELRIGFTSSAPFIRAVSDTLSLFRRDYPDVHLQTREMNTREQIAPLIEGTLDMGLLRNTALPESLEHAVIVHEPLMAMIPHDHPLANNPNVTLAELAKEPFVFFDPHVGTGLYDDILGLMRRYHLTPVITQEVGEAMTIIGLVSAGLGVSILPASFKRVQLNEMRWVPIAEEDAVSEMWLVWPKHHEQSPAARNFRIHLLNALR
- total protein half-life in vivo [1]: 6 ± 0.22 h
- total protein half-life in vivo [11]: 5.84 ± 0.3 h
- total protein half-life in vivo [2]: 6.28 ± 0.17 h
- total protein half-life in vivo [3]: 5.5 ± 0.23 h
- total protein half-life in vivo [4]: 5.65 ± 0.16 h
- total protein half-life in vivo [6]: 6.3 ± 1.5 h
- total protein half-life in vivo [7]: 11.97 ± 0.024 h
- total protein half-life in vivo [12]: 6.8 ± 0.96 h
- total protein half-life in vivo [8]: 12.5 ± 1.8 h
- total protein half-life in vivo [9]: 5.12 ± 0.62 h
- total protein half-life in vivo [10]: 13.3 ± 0.86 h

Sequence: MISRVTEALSKVKGSMGSHERHALPGVIGDDLLRFGKLPLCLFICIILTAVTVVTTAHHTRLLTAQREQLVLERDALDIEWRNLILEENALGDHSRVERIATEKLQMQHVDPSQENIVVQK [P0AEN4]
- total protein half-life in vivo [1]: 4.86 ± 0.82 h
- total protein half-life in vivo [11]: 3.72 ± 0.074 h
- total protein half-life in vivo [2]: 2.91 h
- total protein half-life in vivo [3]: 4.25 ± 0.28 h
- total protein half-life in vivo [4]: 3.44 ± 0.1 h
- total protein half-life in vivo [5]: 2.6 ± 0.074 h
- total protein half-life in vivo [6]: 3.85 h
- total protein half-life in vivo [7]: 7.71 ± 1.4 h
- total protein half-life in vivo [12]: 4.3 ± 0.56 h
- total protein half-life in vivo [8]: 5.19 ± 0.39 h
- total protein half-life in vivo [9]: 4.04 ± 0.16 h
- total protein half-life in vivo [10]: 5.75 ± 1.9 h

Sequence: MINVQNVSKTFILHQQNGVRLPVLNRASLTVNAGECVVLHGHSGSGKSTLLRSLYANYLPDEGQIQIKHGDEWVDLVTAPARKVVEIRKTTVGWVSQFLRVIPRISALEVVMQPLLDTGVPREACAAKAARLLTRLNVPERLWHLAPSTFSGGEQQRVNIARGFIVDYPILLLDEPTASLDAKNSAAVVELIREAKTRGAAIVGIFHDEAVRNDVADRLHPMGASS
- total protein half-life in vivo [9]: 0.0732 h
- total protein half-life in vivo [10]: 0.788 ± 0.69 h

— the supplement of paper PMC11246515
